In patent US20240285757A1 (University of Pennsylvania, published 2024):

B1: 806 CAR (EGFR-specific, 4-1BBZ CAR containing an 806 scFv linked via a CD8alpha hinge and CD8a TM to (other)
VH: DVQLQESGPSLVKPSQSLSLTCTVTGYSITSDFAWNWIRQFPGNKLEWMGYISYSGNTRYNPSLKSRISITRDTSKNQFFLQLNSVTIEDTATYYCVTAGRGFPYWGQGTLVTVSA
VL: DILMTQSPSSMSVSLGDTVSITCHSSQDINSNIGWLQQRPGKSFKGLIYHGTNLDDEVPSRFSGSGSGADYSLTISSLESEDFADYYCVQYAQFPWTFGGGTKLEIKR

Assays:
[1] = target: human CD19 on Nalm6 leukemia cells (human) (UniProt P15391); experiment: cell-based or functional assay
human CD19 on Nalm6 leukemia cells (human), sequence (P15391 20-556): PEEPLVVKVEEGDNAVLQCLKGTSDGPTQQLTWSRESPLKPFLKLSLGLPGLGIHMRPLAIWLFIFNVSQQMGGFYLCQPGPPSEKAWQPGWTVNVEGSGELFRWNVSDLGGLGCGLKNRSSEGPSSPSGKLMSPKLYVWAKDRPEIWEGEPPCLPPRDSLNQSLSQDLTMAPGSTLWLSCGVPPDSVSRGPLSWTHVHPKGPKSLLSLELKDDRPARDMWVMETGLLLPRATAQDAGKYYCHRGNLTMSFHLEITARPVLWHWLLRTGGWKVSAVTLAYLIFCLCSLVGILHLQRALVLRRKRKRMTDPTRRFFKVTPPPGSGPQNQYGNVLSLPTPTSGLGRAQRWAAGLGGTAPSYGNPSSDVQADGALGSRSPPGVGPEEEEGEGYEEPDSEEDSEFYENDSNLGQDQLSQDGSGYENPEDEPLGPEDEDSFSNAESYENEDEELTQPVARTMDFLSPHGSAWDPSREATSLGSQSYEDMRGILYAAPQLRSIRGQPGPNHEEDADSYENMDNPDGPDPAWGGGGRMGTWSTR

[2] = target: EGFR on U87 (U87-MG) human glioblastoma cells (human, UniProt P00533 25-1210); experiment: cell-based or functional assay

Molecule	CpNA functional activity in supernatant after 24 h co-culture at 10:1 E:T (cleavage-activated fluorescent NA substrate) [1]	CpNA functional activity in supernatant after 24 h co-culture with Nalm6 cells at 10:1 E:T [1]	CpNA levels/activity in supernatant after 24 h co-culture at 10:1 E:T (cleavage-activated fluorescent NA substrate) [2]
CD19-specific, 4-1BBZ CAR containing the FMC63 scFv	4.9 fold	19.5 mU/ml	
B1			2.3 fold
